B1: Retinoblastoma-associated protein (Homo sapiens), P06400 (parent)
chain: MPPKTPRKTAATAAAAAAEPPAPPPPPPPEEDPEQDSGPEDLPLVRLEFEETEEPDFTALCQKLKIPDHVRERAWLTWEKVSSVDGVLGGYIQKKKELWGICIFIAAVDLDEMSFTFTELQKNIEISVHKFFNLLKEIDTSTKVDNAMSRLLKKYDVLFALFSKLERTCELIYLTQPSSSISTEINSALVLKVSWITFLLAKGEVLQMEDDLVISFQLMLCVLDYFIKLSPPMLLKEPYKTAVIPINGSPRTPRRGQNRSARIAKQLENDTRIIEVLCKEHECNIDEVKNVYFKNFIPFMNSLGLVTSNGLPEVENLSKRYEEIYLKNKDLDARLFLDHDKTLQTDSIDSFETQRTPRKSNLDEEVNVIPPHTPVRTVMNTIQQLMMILNSASDQPSENLISYFNNCTVNPKESILKRVKDIGYIFKEKFAKAVGQGCVEIGSQRYKLGVRLYYRVMESMLKSEEERLSIQNFSKLLNDNIFHMSLLACALEVVMATYSRSTSQNLDSGTDLSFPWILNVLNLKAFDFYKVIESFIKAEGNLTREMIKHLERCEHRIMESLAWLSDSPLFDLIKQSKDREGPTDHLESACPLNLPLQNNHTAADMYLSPVRSPKKKGSTTRVNSTANAETQATSAFQTQKPLKSTSLSLFYKKVYRLAYLRLNTLCERLLSEHPELEHIIWTLFQHTLQNEYELMRDRHLDQIMMCSMYGICKVKNIDLKFKIIVTAYKDLPHAVQETFKRVLIKEEEYDSIIVFYNSVFMQRLKTNILQYASTRPPTLSPIPHIPRSPYKFPSSPLRIPGGNIYISPLKSPYKISEGLPTPTKMTPRSRILVSIGESFGTSEKFQKINQMVCNSDRVLKRSAEGSNPPKPLKKLRFDIEGSDEADGSKHLPGESKFQQKLAEMTSTRTRMQKQKMNDSMDTSNKEEK

Key:
e2f1_human E2F1, Q01094 [1] = variants of: B1; conditions: with e2f1_human E2F1, Q01094
e2f1_human E2F1, Q01094, sequence (Q01094 whole entry): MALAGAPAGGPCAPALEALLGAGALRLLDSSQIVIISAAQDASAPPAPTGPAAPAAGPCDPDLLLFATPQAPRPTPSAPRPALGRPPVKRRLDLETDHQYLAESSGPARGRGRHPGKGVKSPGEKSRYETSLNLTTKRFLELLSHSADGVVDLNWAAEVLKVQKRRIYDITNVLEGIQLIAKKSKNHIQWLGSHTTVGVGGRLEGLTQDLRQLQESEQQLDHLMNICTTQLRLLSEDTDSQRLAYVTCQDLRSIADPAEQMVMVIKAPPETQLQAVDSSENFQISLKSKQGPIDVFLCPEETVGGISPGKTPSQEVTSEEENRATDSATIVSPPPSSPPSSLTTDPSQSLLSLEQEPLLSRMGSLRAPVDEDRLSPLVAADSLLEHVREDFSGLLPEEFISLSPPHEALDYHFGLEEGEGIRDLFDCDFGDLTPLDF

e2f1_human E2F1, Q01094 [2] = variants of: B1; conditions: with e2f1_human E2F1, Q01094; remark: listed apart in the source
ve7_hpv16 E7, P03129 [3] = variants of: B1; conditions: with ve7_hpv16 E7, P03129
ve7_hpv16 E7, P03129, sequence (P03129 whole entry): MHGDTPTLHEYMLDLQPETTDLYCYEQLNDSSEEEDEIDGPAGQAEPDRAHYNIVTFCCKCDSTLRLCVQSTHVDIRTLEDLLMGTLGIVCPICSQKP

ve7_hpv16 E7, P03129 [4] = variants of: B1; conditions: with ve7_hpv16 E7, P03129; remark: listed apart in the source

Variant | effect of a mutation on the interaction (e2f1_human E2F1, Q01094 [1]) | effect of a mutation on the interaction (e2f1_human E2F1, Q01094 [2]) | effect of a mutation on the interaction (ve7_hpv16 E7, P03129 [3]) | effect of a mutation on the interaction (ve7_hpv16 E7, P03129 [4])
E440K | increasing interaction strength | decreasing interaction strength | with no effect | decreasing interaction strength
S443L | decreasing interaction strength | – | decreasing interaction strength | –
Q444L | with no effect | decreasing interaction strength | increasing interaction strength | –
Q444R | decreasing interaction strength | – | decreasing interaction strength | –
R451C | decreasing interaction strength | – | decreasing interaction strength | –
R451H | decreasing interaction strength | – | decreasing interaction strength | –
R451S | decreasing interaction strength | – | decreasing interaction strength | –
K462E | decreasing interaction strength | – | decreasing interaction strength | –
K462T | decreasing interaction strength | – | decreasing interaction strength | –
S463L | decreasing interaction strength | – | decreasing interaction strength | –
S474I | disrupting interaction strength | – | decreasing interaction strength | –
S474N | decreasing interaction strength | – | decreasing interaction strength | –
S474R | disrupting interaction strength | – | with no effect | decreasing interaction strength
A488V | decreasing interaction strength | – | decreasing interaction strength | –
A490S | decreasing interaction strength | – | decreasing interaction strength | –
A490T | decreasing interaction strength | disrupting interaction strength | decreasing interaction strength | –
A490V | decreasing interaction strength | – | decreasing interaction strength | –
E492Q | decreasing interaction strength | – | decreasing interaction strength | –
Q504E | decreasing interaction strength | – | with no effect | decreasing interaction strength
A525G | decreasing interaction strength | – | decreasing interaction strength | –
K530I | disrupting interaction strength | – | decreasing interaction strength | –

Variant | effect of a mutation on the interaction (e2f1_human E2F1, Q01094 [1]) | effect of a mutation on the interaction (e2f1_human E2F1, Q01094 [2]) | effect of a mutation on the interaction (ve7_hpv16 E7, P03129 [3]) | effect of a mutation on the interaction (ve7_hpv16 E7, P03129 [4])
E533K | disrupting interaction strength | – | decreasing interaction strength | –
S534R | disrupting interaction strength | – | increasing interaction strength | decreasing interaction strength
E539D | decreasing interaction strength | disrupting interaction strength | decreasing interaction strength | –
M546I | increasing interaction strength | – | decreasing interaction strength | –
K548N | disrupting interaction strength | – | decreasing interaction strength | –
L550I | decreasing interaction strength | – | increasing interaction strength | –
E554K | disrupting interaction strength | – | decreasing interaction strength | –
H555Y | disrupting interaction strength | – | decreasing interaction strength | –
R556Q | decreasing interaction strength | – | with no effect | decreasing interaction strength
L572I | decreasing interaction strength | – | increasing interaction strength | decreasing interaction strength
D584Y | decreasing interaction strength | – | decreasing interaction strength | –
H585Y | decreasing interaction strength | – | decreasing interaction strength | –
S588F | decreasing interaction strength | – | with no effect | decreasing interaction strength
P595L | decreasing interaction strength | – | decreasing interaction strength | –
D604G | decreasing interaction strength | – | decreasing interaction strength | –
Y606C | decreasing interaction strength | – | decreasing interaction strength | –
R611S | decreasing interaction strength | – | with no effect | decreasing interaction strength
S612P | decreasing interaction strength | – | decreasing interaction strength | –
T620M | decreasing interaction strength | – | decreasing interaction strength | –
R621H | decreasing interaction strength | – | decreasing interaction strength | –
R621P | decreasing interaction strength | – | decreasing interaction strength | –

Variant | effect of a mutation on the interaction (e2f1_human E2F1, Q01094 [1]) | effect of a mutation on the interaction (e2f1_human E2F1, Q01094 [2]) | effect of a mutation on the interaction (ve7_hpv16 E7, P03129 [3]) | effect of a mutation on the interaction (ve7_hpv16 E7, P03129 [4])
R621S | decreasing interaction strength | – | decreasing interaction strength | –
T638S | with no effect | decreasing interaction strength | decreasing interaction strength | –
S648T | decreasing interaction strength | – | decreasing interaction strength | –
V654L | decreasing interaction strength | – | decreasing interaction strength | –
R656Q | disrupting interaction strength | – | decreasing interaction strength | –
R656W | decreasing interaction strength | – | decreasing interaction strength | –
T664A | decreasing interaction strength | – | decreasing interaction strength | –
R668C | increasing interaction strength | decreasing interaction strength | increasing interaction strength | decreasing interaction strength
R668H | increasing interaction strength | with no effect | decreasing interaction strength | –
S671F | decreasing interaction strength | – | decreasing interaction strength | –
H673P | decreasing interaction strength | disrupting interaction strength | decreasing interaction strength | –
H673Y | decreasing interaction strength | – | decreasing interaction strength | –
E675Q | decreasing interaction strength | – | decreasing interaction strength | –
I679F | decreasing interaction strength | – | decreasing interaction strength | –
H686Y | decreasing interaction strength | – | with no effect | decreasing interaction strength
T687I | decreasing interaction strength | – | decreasing interaction strength | –
E693A | decreasing interaction strength | – | decreasing interaction strength | –
M695I | decreasing interaction strength | disrupting interaction strength | decreasing interaction strength | –
D697E | decreasing interaction strength | disrupting interaction strength | decreasing interaction strength | –
H699P | decreasing interaction strength | – | decreasing interaction strength | –

From IntAct's records for PubMed 39938803
